Holding throughout (test): purified protein, by the assay type
Common to all, as to conditions: other: glucose ester formation; pH 7.0; 30.0 °C

Substrate in data set [1]: COc1cc(/C=C/C(=O)O)ccc1O
Substrate in data set [2]: O=C(O)C=Cc1ccccc1
Substrate in data set [3]: O=C(O)/C=C/c1ccc(O)cc1

The record followed here is US7335814B2, “Transgenic cells expressing glucosyltransferase nucleic acids” (The University of York, priority 2000, dated 2008).

What is called Km is the concentration of substrate that gives half-maximal velocity.

B1: recombinant GTase A911 (Arabidopsis thaliana) (protein)
chain: MGSSEGQETHVLMVTLPFQGHINPMLKLAKHLSLSSKNLHINLATIESARDLLSTVEKPRYPVDLVFFSDGLPKEDPKAPETLLKSLNKVGAMNLSKIIEEKRYSCIISSPFTPWVPAVAASHNISCAILWIQACGAYSVYYRYYMKTNSFPDLEDLNQTVELPALPLLEVRDLPSFMLPSGGAHFYNLMAEFADCLRYVKWVLVNSFYELESEIIESMADLKPVIPIGPLVSPFLLGDGEEETLDGKNLDFCKSDDCCMEWLDKQARSSVVYISFGSMLETLENQVETIAKALKNRGLPFLWVIRPKEKAQNVAVLQEMVKEGQGVVLEWSPQEKILSHEAISCFVTHCGWNSTMETVVAGVPVVAYPSWTDQPIDARLLVDVFGIGVRMRNDSVDGELKVEEVERCIEAVTEGPAAVDIRRRAAELKRVARLALAPGGSSTRNLDLFISDITIA
As for B1, the Michaelis constant (Km) came out at 340 µM in data set [1], 50 µM in data set [2] and 390 µM in data set [3]. In addition, the Vmax in data set [3] came out at 11.10 nkat/mg.
